The record followed here is US20090163698A1, “Method for Preparing Antibody Conjugates” (priority 2007, published 2009).

Bounds are passed on as bounds.

The test deals with human αVβ3/5 integrin (human) (UniProt P06756). Description: cell-based or functional assay. Further details: IC50 of doxorubicin, cell viability, colon cancer HT29 cells, targeted liposomes 40:1 / IC50 of doxorubicin, cell viability, colon cancer HT29 cells, targeted liposomes 90:1 / IC50 of doxorubicin, cell viability, melanoma A375.S2 cells, targeted liposomes 40:1 / IC50 of doxorubicin, cell viability, melanoma A375.S2 cells, targeted liposomes 90:1 / IC50 of doxorubicin, cell viability, ovarian cancer A2780 cells, targeted liposomes 40:1 / IC50 of doxorubicin, cell viability, ovarian cancer A2780 cells, targeted liposomes 90:1: unit not given beside the values.
Chain of human αVβ3/5 integrin (human) (P06756 31-1048): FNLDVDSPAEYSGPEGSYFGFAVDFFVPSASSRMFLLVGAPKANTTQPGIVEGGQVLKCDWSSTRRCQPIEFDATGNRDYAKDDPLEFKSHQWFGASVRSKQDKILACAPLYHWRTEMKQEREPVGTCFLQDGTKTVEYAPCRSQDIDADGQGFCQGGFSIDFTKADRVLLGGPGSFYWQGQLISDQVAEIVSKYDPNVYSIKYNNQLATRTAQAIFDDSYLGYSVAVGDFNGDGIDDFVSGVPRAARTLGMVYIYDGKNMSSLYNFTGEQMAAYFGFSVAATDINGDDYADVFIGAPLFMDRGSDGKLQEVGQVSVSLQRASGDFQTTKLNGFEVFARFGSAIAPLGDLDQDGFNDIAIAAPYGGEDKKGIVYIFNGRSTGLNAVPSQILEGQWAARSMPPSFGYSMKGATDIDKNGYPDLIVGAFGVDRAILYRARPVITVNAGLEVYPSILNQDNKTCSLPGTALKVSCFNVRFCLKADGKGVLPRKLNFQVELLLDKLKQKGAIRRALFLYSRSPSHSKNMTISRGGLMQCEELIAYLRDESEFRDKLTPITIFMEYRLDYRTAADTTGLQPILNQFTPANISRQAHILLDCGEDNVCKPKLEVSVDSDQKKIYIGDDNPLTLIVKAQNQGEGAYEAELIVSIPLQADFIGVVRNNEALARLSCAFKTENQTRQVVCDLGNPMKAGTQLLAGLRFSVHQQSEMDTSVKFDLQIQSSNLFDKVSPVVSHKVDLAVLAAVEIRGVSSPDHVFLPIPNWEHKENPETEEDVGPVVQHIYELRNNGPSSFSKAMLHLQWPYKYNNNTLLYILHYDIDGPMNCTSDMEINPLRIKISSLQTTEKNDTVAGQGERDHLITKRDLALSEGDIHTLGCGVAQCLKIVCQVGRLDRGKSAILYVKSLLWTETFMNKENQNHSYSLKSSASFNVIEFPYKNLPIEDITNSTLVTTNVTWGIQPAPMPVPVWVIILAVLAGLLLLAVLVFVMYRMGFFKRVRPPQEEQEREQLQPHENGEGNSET

On to “CNTO 95 Fab′ (anti-alpha-V Fab′ made by pepsin cleavage of the parent antibody, reduction and reoxidation), conjugated to MalPEG-DSPE on the surface of liposomes”, for which the IC50 of doxorubicin, cell viability, colon cancer HT29 cells, targeted liposomes 40:1 stood at 180; the IC50 of doxorubicin, cell viability, colon cancer HT29 cells, targeted liposomes 90:1 was more than 200; the IC50 of doxorubicin, cell viability, melanoma A375.S2 cells, targeted liposomes 40:1 stood at 15; the IC50 of doxorubicin, cell viability, melanoma A375.S2 cells, targeted liposomes 90:1 amounted to 7. In addition, the IC50 of doxorubicin, cell viability, ovarian cancer A2780 cells, targeted liposomes 40:1 is 12; the IC50 of doxorubicin, cell viability, ovarian cancer A2780 cells, targeted liposomes 90:1 was found to be 7; the Increase (ratio of IC50 of liposome-entrapped doxorubicin to IC50 of 90:1 targeted liposomes), A375.S2 cells came to 29 fold; the Increase (ratio of IC50 of liposome-entrapped doxorubicin to IC50 of 90:1 targeted liposomes), A549 cells was determined as 1 fold. For the same substance, the Increase (ratio of IC50 of liposome-entrapped doxorubicin to IC50 of 90:1 targeted liposomes), A2780 cells is 29 fold; the Increase (ratio of IC50 of liposome-entrapped doxorubicin to IC50 of 90:1 targeted liposomes), HT29 cells is 1.1 fold; the Increase (ratio of IC50 of liposome-entrapped doxorubicin to IC50 of 90:1 targeted liposomes), MDA-MB-231 cells came out at 5 fold.
